In patent publication US20090149339A1 (published 2009):
Ends that are not written are not given here. * marks the point of attachment. Biotin = O=C1N[C@H]2[C@H](CS[C@H]2CCCCC(=O)*)N1

B1: CDW128B (IL8RB) C-terminal PL peptide AA29.2L, biotinylated (peptide)
peptide: Biotin-KDSRPSFVGSSSGHTSTTL
B2: CD138 (syndecan) C-terminal PL peptide AA18L, biotinylated (peptide)
peptide: Biotin-PKQANGGAYQKPTKQEEFYA
B3: KV1.3 C-terminal PL peptide AA33L, biotinylated (peptide)
peptide: Biotin-TTNNNPNSAVNIKKIFTDV

Legend:
[1] = target: T1, GST-41.8 kD PDZ domain fusion protein (hypothetical 41.8 kD protein AA4-85; PDZ domain 1 of 1) (UniProt P08515 1-218 = GST); assay: A assay
T1 construct: also called hypoth

[2] = target: T2, GST-PSD95 PDZ domain fusion protein (human post-synaptic density protein 95 AA387-724; PDZ domains 1-3 of 3) (human, UniProt P08515 1-218 = GST); assay: A assay
T2 sequence (P08515 1-218, tags or fused parts left off): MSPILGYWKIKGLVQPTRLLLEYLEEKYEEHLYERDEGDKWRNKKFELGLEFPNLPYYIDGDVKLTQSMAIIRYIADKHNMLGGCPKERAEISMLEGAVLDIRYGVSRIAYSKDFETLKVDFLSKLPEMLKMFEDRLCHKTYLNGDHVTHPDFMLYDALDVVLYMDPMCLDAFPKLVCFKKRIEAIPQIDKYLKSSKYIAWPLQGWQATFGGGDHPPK

[3] = target: T3, GST-CASK PDZ domain fusion protein (CASK AA495-584; PDZ domain 1 of 1) (mouse, UniProt P08515 1-218 = GST); assay: A/G assays
T3 construct: also called mCASK

[4] = target: GST-LIM PDZ domain fusion protein (Human LIM protein AA29-112; PDZ domain 1 of 1) (human, UniProt P08515 1-218 = GST); assay: A/G assays
GST-LIM PDZ domain fusion protein (Human LIM protein AA29-112; PDZ domain 1 of 1), sequence (P08515 1-218, tags or fused parts left off): as above

[5] = target: GST-LIMK2 PDZ domain fusion protein (human LIM domain kinase 2 AA185-275; PDZ domain 1 of 1) (human, UniProt P08515 1-218 = GST); assay: A/G assays
GST-LIMK2 PDZ domain fusion protein (human LIM domain kinase 2 AA185-275; PDZ domain 1 of 1), sequence (P08515 1-218, tags or fused parts left off): as above

[6] = target: T4, GST-MPP2 PDZ domain fusion protein (maguk p55 subfamily member 2 (DLG2) AA185-273; PDZ domain 1 of 1) (UniProt P08515 1-218 = GST); assay: A/G assays
T4 construct: also called MMP2
T4 sequence (P08515 1-218, tags or fused parts left off): as above

[7] = target: GST-NOS1 PDZ domain fusion protein (human neuronal nitric oxide synthase; PDZ domain 1 of 1) (human, UniProt P08515 1-218 = GST); assay: A/G assays
[8] = target: GST-AF6 PDZ domain fusion protein (af-6 protein AA985-1077; PDZ domain 1 of 1) (UniProt P08515 1-218 = GST); assay: A/G assays
GST-AF6 PDZ domain fusion protein (af-6 protein AA985-1077; PDZ domain 1 of 1), sequence (P08515 1-218, tags or fused parts left off): as above

[9] = target: GST-PTN-4 PDZ domain fusion protein (protein-tyrosine phosphatase meg1 AA774-862; PDZ domain 1 of 1) (UniProt P08515 1-218 = GST); assay: A/G assays
GST-PTN-4 PDZ domain fusion protein (protein-tyrosine phosphatase meg1 AA774-862; PDZ domain 1 of 1), sequence (P08515 1-218, tags or fused parts left off): as above

[10] = target: GST-prIL16 PDZ domain fusion protein (putative interleukin 16 precursor AA170-383; PDZ domains 1-2 of 2) (UniProt P08515 1-218 = GST); assay: A/G assays
GST-prIL16 PDZ domain fusion protein (putative interleukin 16 precursor AA170-383; PDZ domains 1-2 of 2), sequence (P08515 1-218, tags or fused parts left off): as above

[11] = target: T5, GST-KIAA0559 PDZ domain fusion protein (KIAA0559 AA766-870; PDZ1 of 1) (UniProt P08515 1-218 = GST); assay: A/G assays
T5 construct: also called K559
T5 sequence (P08515 1-218, tags or fused parts left off): as above

[12] = target: GST-MPP1 PDZ domain fusion protein (55 Kd erythrocyte membrane protein AA101-186; PDZ domain 1 of 1) (UniProt P08515 1-218 = GST); assay: A/G assays
GST-MPP1 PDZ domain fusion protein (55 Kd erythrocyte membrane protein AA101-186; PDZ domain 1 of 1), sequence (P08515 1-218, tags or fused parts left off): as above

[13] = target: T6, GST-KIAA0316 PDZ domain fusion protein (KIAA0316 AA197-284; PDZ domain 1 of 1) (UniProt P08515 1-218 = GST); assay: A/G assays
T6 construct: also called K316
T6 sequence (P08515 1-218, tags or fused parts left off): as above

[14] = target: T7, GST-DVL1 PDZ domain fusion protein (human dishevelled segment polarity protein homolog AA248-340); PDZ domain … (human, UniProt P08515 1-218 = GST); assay: A/G assays
T7 sequence (P08515 1-218, tags or fused parts left off): as above

[15] = target: T8, GST-TAX40 PDZ domain fusion protein (human tax interaction protein 40 AA35-137; PDZ domain 1 of 1) (human, UniProt P08515 1-218 = GST); assay: A/G assays
T8 construct: also called TX 40
T8 sequence (P08515 1-218, tags or fused parts left off): as above

[16] = target: T9, GST-TIAM1 PDZ domain fusion protein (T-lymphoma invasion and metastasis inducing protein 1 AA1001-1088); PDZ 1 … (UniProt P08515 1-218 = GST); assay: A/G assays
T9 sequence (P08515 1-218, tags or fused parts left off): as above

[17] = target: T10, GST-KIAA0303 PDZ domain fusion protein (KIAA0303 AA652-742; PDZ domain 1 of 1) (UniProt P08515 1-218 = GST); assay: A/G assays
T10 construct: also called K303
T10 sequence (P08515 1-218, tags or fused parts left off): as above

[18] = target: T11, GST-CBP PDZ domain fusion protein (Cytohesin binding protein HE AA85-175; PDZ domain 1 of 1) (UniProt P08515 1-218 = GST); assay: A/G assays
T11 construct: also called Prot
T11 sequence (P08515 1-218, tags or fused parts left off): as above

[19] = target: GST-MINT3 PDZ domain fusion protein (human MINT3 AA11-52; PDZ domain 1 of 1) (human, UniProt P08515 1-218 = GST); assay: A/G assays
GST-MINT3 PDZ domain fusion protein (human MINT3 AA11-52; PDZ domain 1 of 1), sequence (P08515 1-218, tags or fused parts left off): as above

[20] = target: T12, GST-TAX2 PDZ domain fusion protein (human tax interaction protein 2 AA54-140; PDZ domain 1 of 1) (human, UniProt P08515 1-218 = GST); assay: A/G assays
T12 construct: also called TX 2
T12 sequence (P08515 1-218, tags or fused parts left off): as above

[21] = target: T13, GST-TAX33 PDZ domain fusion protein (tax interaction protein 33 AA73-162; PDZ domain 1 of 1) (UniProt P08515 1-218 = GST); assay: A/G assays
T13 construct: also called TX33
T13 sequence (P08515 1-218, tags or fused parts left off): as above

[22] = target: T14, GST-SYN1a PDZ domain fusion protein (alpha1-syntrophin AA96-189; PDZ domain 1 of 1) (UniProt P08515 1-218 = GST); assay: A/G assays
T14 construct: also called SYN 1 alpha; SYNTR 1 alpha
T14 sequence (P08515 1-218, tags or fused parts left off): as above

[23] = target: T15, GST-TAX43 PDZ domain fusion protein (human tax interaction protein 43 AA15-85; PDZ domain 1 of 1) (human, UniProt P08515 1-218 = GST); assay: A/G assays
T15 construct: also called TX 43
T15 sequence (P08515 1-218, tags or fused parts left off): as above

[24] = target: T16, GST-NeDLG PDZ domain fusion protein (presynaptic protein sao102, neuroendocrine-dlg; PDZ domains 1-2 of 3) (UniProt P08515 1-218 = GST); assay: A and G assays
T16 construct: also called NeDLG1
T16 sequence (P08515 1-218, tags or fused parts left off): as above

[25] = target: T9, GST-TIAM1 PDZ domain fusion protein …; assay: A assay
[26] = target: T17, GST-RGS12 PDZ domain fusion protein (human regulator of G-protein signalling 12 AA35-103; PDZ domain 1 of 1) (human, UniProt P08515 1-218 = GST); assay: A/G assays
T17 construct: also called RSG12

[27] = target: T2, GST-PSD95 PDZ domain fusion protein …; assay: A/G assays
[28] = target: T16, GST-NeDLG PDZ domain fusion protein …; assay: A/G assays
[29] = target: T1, GST-41.8 kD PDZ domain fusion protein …; assay: A and G assays
[30] = target: T17, GST-RGS12 PDZ domain fusion protein …; assay: A assay
[31] = target: T7, GST-DVL1 PDZ domain fusion protein …; assay: A assay
[32] = target: T2, GST-PSD95 PDZ domain fusion protein …; assay: A and G assays

Binder	binding result [1]	binding result [3]	binding result [4]	binding result [5]	binding result [6]	binding result [7]	binding result [8]	binding result [9]	binding result [10]	binding result [11]	binding result [12]	binding result [13]	binding result [15]	binding result [17]	binding result [18]	binding result [19]	binding result [20]	binding result [21]	binding result [22]	binding result [23]	other results
B1	binds	no binding	no binding	no binding	no binding	no binding	no binding	no binding	no binding	no binding	no binding	no binding	no binding	no binding	no binding	no binding	no binding	no binding	no binding	no binding	binding result [2]: binds; binding result [14]: no binding; binding result [16]: no binding; binding result [24]: binds
B2	–	–	no binding	no binding	no binding	no binding	no binding	no binding	no binding	no binding	no binding	no binding	no binding	no binding	no binding	no binding	no binding	no binding	no binding	no binding	binding result [25]: binds; binding result [26]: no binding; binding result [14]: no binding; binding result [27]: no binding; binding result [28]: no binding; binding result [29]: binds
B3	binds	no binding	no binding	no binding	no binding	no binding	no binding	no binding	no binding	no binding	no binding	no binding	no binding	no binding	no binding	no binding	no binding	no binding	no binding	no binding	binding result [30]: binds; binding result [31]: binds; binding result [16]: no binding; binding result [32]: binds; binding result [24]: binds
